Test results taken from the nanobody polyreactivity screen of Harvey et al. (2022).

assay: yeast display, Sf9 membrane polyspecificity reagent, FACS + sequencing; frameworks hold sequencing errors
In short: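 Genes from sorted yeast were amplified by colony PCR, read by MiSeq 2 × 250 sequencing and filtered on CDR length. These cells carried a synthetic nanobody library in Saccharomyces cerevisiae BJ5465 and were sorted by FACS into low and high (top ~1%) gates on anti-HA and streptavidin fluorescence. Polyreactivity is labelled according to the gate of origin.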

Row | Sequence | polyreactivity (PSR sort gate)
1 | QVQLVESGGGLVQAGGSLRLSCAASGSTFGYNAMGWYRQAPGKERELVAAISSDGSTNYADSVKGRFTISRDNSKNTVYLQMNSLKPEDTAVYYCAADDNGAWVRMDYWGHGTQVTVSS | low polyreactivity
2 | QVQLVESGGGLVQAGGSLRLSCAASGSTFRLYAMGWYRQAPGKERELVAAISTRGSSTYYADSVKGRFTISRDNAKNTVYLQMNSLKPEDTAVYYCAADAYFIYSRYWYDYWGQGTQVTVSS | high polyreactivity
3 | QVQLVESGGGLVQAGGSLRLSCAASGSIFNYYAMGRYRQAPGKERELVAAIETTGGSTYYADSVKGRFTISRDNAKNTVYLQMNSLKPEDTAVYYCAATWAKPWYYEYDYWGQGTQVTVSS | low polyreactivity
4 | QVQLVESGGGLVQAGGSLRLSCAASGRIFTDNAMGWYRQAPGKERELVAAISWDGSSTSYADSVKGRFTISRDNAKNTVYLQMNSLKPEDTAVYDCAAVLYSGLYWYRLDYWGQGTRVTVSS | low polyreactivity
5 | QVQLVESGGGLVQAGGSLRLSCAASGSTFSGYAMGWYRQAPGKARELVAAISWRGVRTYYADSVKGRFTISRDNAKNTVYLQMNSLKPEDTAVSYCAAVRYITKEFSWGQGTQVTVSW | high polyreactivity
6 | QVQLVESGGGLVQAGGSLRLSCAASGRTFGKNAMGWYRQAPGKERELVAAISWSGGRTYYADSVKGRFTISRDNAKNTVYLQMNSLKPEDTAVYYCATASYRNPSDYWGQGTQVTVSS | high polyreactivity
7 | QVQLVESGGGLVQAGGSLRLSCAASGSTFGVYAMGWYREAPGKERELVAAINKSGTRTYYADSVKGRFTISRDNAKNTVYLQMNSLKPEDTAVYYCAADQGTYGYGGFYYWGQGTQVTVSS | high polyreactivity
8 | QVQLVESRGGLVQAGGSLRLSCPDSGITLSEYAMGWYRQAPGKERELVATISWRGGTTYYADSVKGLFTISRDNAKNTVSLQMIILNPEDTAVYYCAASWWSFGCYTWKAYDYWGQGTQVTVSS | high polyreactivity
9 | QVQLVESGGGLVQAGGSLRLSCAASGSIFYRYAMGWSRQAPGKERELVAAISSGSSTHYADSVKGRFTMSRDNAKNTVYLQMNSLKPEDTAVYYCAARYRAYTSTRRFDYWGQGTQVTVSS | high polyreactivity
10 | QVQLVESGGGLVQAGGSLRLSCAASGSTFKAYAMGWYRQAPGKERELVAAITRRGTSTYYADSVKGRFTISRDNAKNTDYFQMNRLKPEDTAVFYCNAKYVSDRSSAVSFDYWVQGTQVTVSS | low polyreactivity
11 | QDQLVESGGGLVQAGGSLRLSCAASGSTFTFYVMGWYRQAPGKERELVAAITASGGSTYYADSVKGRFTISRDNAKNTVYLQMNSLKPEDTAVYYCAARPTYYYSRTYDYWGQGTQVTVSS | low polyreactivity
12 | QVQLVESGGGLVQAGGSLRLSCAASGSTFTYYAMGWYRQAPGKERELVASINWSGGSTRYADSVKGRFTISRDNAKNTVYLQMNSLKPEDTAVYYCAARKSPRSQVRGRSYYWGQGTQVTVSS | high polyreactivity
13 | QVQLVESGGGLVQAGGSLRLSCAASGRIVSGYVMGWYRQAPGKERELVAVISRSGGSTYYADSVKGRFTISRDNAKNTVYLQMNSLKPEDTAVYYCDAKHIDGSRGYDYWGQGTQVTVSS | low polyreactivity
14 | QVQLVESGGGLVQAGGSLRLSCAASVSIIPHNTMGWYRQAPGKEMELVAAISRSGGSTYYADSVKGRFTISRDNGKKTVYLQMNSLKPEDTAVYYCSSDSYDVGHQVVSEERLYDYWGQGTQVTVSS | low polyreactivity
15 | QVQLVESGGGLVQAGGSLRLSCAASGRTFGPNGMGWYRQAPGKERELVAAITRRGGSTYYADSVKGRFTISRDNEKNTVYLQMNSLKPEDTAVYYCAAYSSWGGFDYWGQGTQVTVSS | low polyreactivity
16 | QVQLVESGGGLVQAGGSLRLSCAASGSTFYDYAMGWYRQAPGTEREFVAAISGSAGSTYYADSVKGRFTISRDNAKNTVYLQMNSLKPEDTAVYYCATDYGWEDYNYWGQGTQVTVSS | low polyreactivity

Row | Sequence | polyreactivity (PSR sort gate)
17 | QVQLVESGGGLVQAGGSLRLSCAASGSTFYANAMGWYIQPPGKERELVAAISRSGGRTYYADSVKGRFTISRDTAKKTVYLQMNSLKTEDNSVYYCAKAYHHSEFDYWGQGTQVTVSS | high polyreactivity
18 | QVQLVESCGGLVQAGGSLRLSCAASGITIDYYAMGWYRQAPGKERELVAAISSVGNTNYADSVKGRFTISRDNAKNTVYLQMNSLKPEDTAVYYCAARAYGQRLYRVWSGYGYWGQGTQVTVSS | high polyreactivity
19 | QVQLVESVGGLVQAGGSLPLSCAASGLTFPSYAMGWYRQAPGKERELVAAISASGSSTYYADSVKGRFTISRDNAKNTVYLQMNSLKPEDTAVYYCNARKPATVSRYGYWGQGTQVTVSS | high polyreactivity
20 | QVQLVESGGGLDQAGGSLRLSCAASGFTFRKNAMGWYRQAPGKERELVAVISYSGGSTYYADSVNGRFTISRDSANNTVYLQMNSQKPEDSAVYYCNAVGWTRYWRIGWSAYYYWGQGTQVTVSS | high polyreactivity
21 | QVQLVESGGGLVQAGGSLRLSCAASGFTFPKYAMGWYRQAPGKERELVAAITWSGGSTRYADSVKGRFTISRDNAKNTVYLQMNSLKPEDTAVYYCAADRRSGYSRYKYGRGDYWGQGTQVTVSS | high polyreactivity
22 | QVQLVESGGGLVQAGGSLRLSCAASGITFWPYAMGWYIQAPGKERELVAAIRASAGRTYYADSVKGRFTISRDNAKNTVYLQMNSLKPEDTAVYYCNAYGRYGKFRVEYDYWGQGTQVTVSS | low polyreactivity
23 | QVQLVESGGGLVQAGGSLRLSCAASGFIIYTYAMGWYRQAPGKERELVAAISRGGRTNYADSVKGRFTISRDNAKNTVYLQMNSLKPEDTAVYYCASSYSHRYDYWGQGSQVTVSS | high polyreactivity
24 | QVQLVESGGGVVQAGGSLRLSCAASGRTFQFNAMGWYRQAPGKERELVATIDDPSGGTYYADSVKGRFTISRDNAKNTVYLQMNSLKPEDTAVYYCAADRWDSRYETYRYDYWGQGTQVTVSS | low polyreactivity
25 | QVQLVESGGGLVQAGGSLRLSCAASGRTFRYNVMGWYRQAPGKERELVAAITYSGGRTYYADSVKGRFTISRDNVKNTVYLQMNSLKPEDTAVYYCAALSAPGYGRYNYWGQGTQVTVSS | high polyreactivity
26 | QVQLVESGGGLVQAGGSLRLSCAASGITFYDNAMGWYRQAPGKERELVAGISSGGRTYYADSVKGRFTISRDNAKNTVYLQMNSLKPEDTAVYYCNAASLVAYLARLGRDYWGQGTQVTVSS | low polyreactivity
27 | QVQLVESGGGLVQAGGSLRLSCAASGRIFKRYAMGWYRQAPGKERELVAAITSSGGRTYYADSVKGRFTISRDNAKNTVYLQMNSLKPEDTAVYYCNVDSANRDGYWGQGTQVTVSS | high polyreactivity
28 | QVQLVESGGGLVQAGGSLRLSCAASGFIFSRYAMGWYRQAPGKERELVAAITSGGGTYSADSVKGRFTISRDNAKNTVYLQMNSLKPEDTAVYYCAAGYGPTSTSSVRITAGDHWGQGTQVTVSS | low polyreactivity
29 | QVQLVESGGGLVQAGGSLRLSCAASGSTLAKYTMGWYRQAPGKERELVATISRRGGSTYYADSVKGRFTISRDNAKNTVYLQMNSLKPEDTAVYYCNAVGHTSIRRALDILDYWGQGTQVTVSS | high polyreactivity
30 | QVQLVESGGGLVQAGGSLRLSCAASGIIFGRYAMGWYTPAPGKERELVATISYRGGRTYYADSVKGRFTISRDNAKNTVYLQMNSLKPEDTAVYYCAAPHFSYSGGTHDYWGQGTQVTVSS | high polyreactivity
31 | QVQLVESGGGLVQAGGSLRLSCAASGRTFGTYAMGWYRQAPGKERELVAAISTRDGSTYYADSVKGRFTISRDNAKNTVYLQMNSLKPEDTAVYYCNATWSVPSGQYDYWGQGTQVTVSS | low polyreactivity
